# Experimental data published in patent US20200283523A1.
# Target: C1Q (UniProt P02745)
# Assay: ELISA, antibody coated on the plate, C1q titrated (axis [C1q] nM), anti-human C1q-HRP detection
# C1Q, sequence (P02745 23-245 limits assumed, chain 1 of 3): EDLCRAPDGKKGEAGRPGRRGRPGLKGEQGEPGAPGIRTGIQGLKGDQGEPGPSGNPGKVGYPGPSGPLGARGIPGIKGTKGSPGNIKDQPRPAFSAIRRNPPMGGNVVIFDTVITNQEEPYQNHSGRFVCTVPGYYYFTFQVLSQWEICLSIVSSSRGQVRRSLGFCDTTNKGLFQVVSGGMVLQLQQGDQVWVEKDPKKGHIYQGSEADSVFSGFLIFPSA
# C1Q, sequence (P02746 28-253 limits assumed, chain 2 of 3, further chain): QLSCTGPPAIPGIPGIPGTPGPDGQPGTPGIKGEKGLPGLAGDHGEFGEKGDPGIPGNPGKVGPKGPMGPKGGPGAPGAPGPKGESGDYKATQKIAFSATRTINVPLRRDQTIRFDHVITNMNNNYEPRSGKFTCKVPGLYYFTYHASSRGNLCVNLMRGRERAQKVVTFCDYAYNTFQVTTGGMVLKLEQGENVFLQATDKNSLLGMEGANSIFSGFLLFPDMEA
# C1Q, sequence (P02747 29-245 limits assumed, chain 3 of 3, further chain): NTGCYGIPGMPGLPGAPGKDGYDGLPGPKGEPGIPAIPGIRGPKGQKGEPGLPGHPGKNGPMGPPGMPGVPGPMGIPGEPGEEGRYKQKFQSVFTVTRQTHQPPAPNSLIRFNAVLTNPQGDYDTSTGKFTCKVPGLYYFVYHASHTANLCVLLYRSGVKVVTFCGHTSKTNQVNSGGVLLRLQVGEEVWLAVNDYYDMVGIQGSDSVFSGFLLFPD
substance,measurement,value
control human IgG1 antibody,EC50 (read off the curve),30 nM
